Assays:
cell-expressed CD40 = cell-expressed CD40 (UniProt P25942); experiment: cell binding on HEK-Blue-CD40L cells, Alexa-Fluor-488 anti-human IgG, high content imaging
recombinant CD40 protein = recombinant CD40 protein (UniProt P25942); experiment: CD40L competition ELISA: antibody (5 µg/ml) preincubated with recombinant CD40 (1.7 µg/ml), complex added to coated CD40L, detected with anti-human F(ab)2-peroxidase; a high signal means no competition with CD40L (antibody and CD40L bound to CD40 together)
Sequence of recombinant CD40 protein (P25942 21-193 limits assumed): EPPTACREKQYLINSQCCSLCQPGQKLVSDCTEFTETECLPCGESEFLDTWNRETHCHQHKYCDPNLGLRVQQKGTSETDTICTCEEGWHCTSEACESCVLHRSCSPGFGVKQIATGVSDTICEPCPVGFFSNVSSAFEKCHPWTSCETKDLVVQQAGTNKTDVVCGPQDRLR

Sequence of cell-expressed CD40 (P25942 21-277 limits assumed): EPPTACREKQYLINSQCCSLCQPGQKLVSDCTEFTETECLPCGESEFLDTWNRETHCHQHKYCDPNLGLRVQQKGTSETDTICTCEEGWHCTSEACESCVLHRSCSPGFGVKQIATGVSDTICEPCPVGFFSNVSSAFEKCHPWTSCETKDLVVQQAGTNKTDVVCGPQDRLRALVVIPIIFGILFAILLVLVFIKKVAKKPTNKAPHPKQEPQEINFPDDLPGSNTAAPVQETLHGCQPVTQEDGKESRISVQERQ

- EC50 (cell-expressed CD40): 0.0145 µg/mL
- OD at 450 nm (recombinant CD40 protein): 2.54 OD
Substance: CP-870,893 IgG1-LALA (antibody)

From patent US20240010741A1
